Results on two molecules are retold here after patent US7217548B2, “N-acetylglucosaminlytransferase and polynucleotide encoding the same” (National Institute of Advanced Industrial Science and …, priority 2000, dated 2007).

Assay [1] concerns OMGnT. The assay can be described thus: OMGnT activity in serum-free medium of HEK293T cells expressing solubilized enzymes. It is filed as biochemical, human. Conditions: serum-free medium of HEK293T transfectants. As to the method:
The enzyme solution was added to 140 mM MES [2-(N-morpholino) ethanesulfonic acid] buffer (pH 7.0) containing 0.4 mM Man-peptide, 0.2 mM UDP-[^3H]GlcNAc (up to 228,000 dpm/nmol), 10 mM MnCl2, 5 mM AMP, 200 mM GlcNAc, 2%(w/v) Triton X-100, 10% glycerol, 2 μg/ml antipain, 2 μg/ml chymostatin, 3 μg/ml pepstatin A, 2 μg/ml leupeptin, 1 mM benzamidine-HCl, and 1 mM PMSF (phenylmethylsulfonyl fluoride) to prepare 50 μl of reaction solution. After the reaction at 37° C. for 3 hours, the reaction was terminated by 3 minutes of boiling. The reaction mixture was then filtered with a filter Ultrafree-MC (Millipore) having a pore size of 0.22 μm to remove solids, and analyzed by Wakopak 5C18-200 column (4.6×250 mm, Wako Pure Chemical Industries, Ltd.). The separation was carried out using concentration gradient with Solution A and Solution B at a flow rate of 1.0 ml/min. […] Peptide detection was carried out at 214 nm, and the radioactivity of each fraction was assayed using a liquid scintillation counter.
Each secretory expression plasmid was transiently expressed in a HEK293T cell derived from human embryonic kidney. Usually, HEK293T cells were cultured in D-MEM (Gibco, #11995-065) containing 10% Fetal Calf Serum (Hyclone), 10 mM MEM Non-Essential Amino Acids solution (Gibco), 2 mM Glutamine (Gibco), and 100 units/ml Penicillin/100 μg/ml Streptomycin (Gibco). In a 6-well plate, 2 μg of plasmid was transfected into 50 to 70% confluent cells by calcium phosphate method. After overnight cultivation, the medium exchange was performed and the cultivation was continued for 48 hours [Pear, W. S., Nolan, G. P., Scott, M. L. and Baltimore, D., Proc. Natl. Acad. Sci. USA, (1993), 90, 8392–8396]. Further, the medium was exchanged with a serum-free medium, and after 48-hour cultivation, the supernatant was collected.
According to the method described in Example 1, OMGnT activity in the serum-free medium was assayed.

For assay [2], the target named is T1, GnT-I (Homo sapiens, UniProt P26572).
T1 construct: Ig kappa chain secretory signal (N); made in house; host or cells: HEK293T (transient, secreted into serum-free medium)
T1 sequence (P26572 39-445 limits assumed): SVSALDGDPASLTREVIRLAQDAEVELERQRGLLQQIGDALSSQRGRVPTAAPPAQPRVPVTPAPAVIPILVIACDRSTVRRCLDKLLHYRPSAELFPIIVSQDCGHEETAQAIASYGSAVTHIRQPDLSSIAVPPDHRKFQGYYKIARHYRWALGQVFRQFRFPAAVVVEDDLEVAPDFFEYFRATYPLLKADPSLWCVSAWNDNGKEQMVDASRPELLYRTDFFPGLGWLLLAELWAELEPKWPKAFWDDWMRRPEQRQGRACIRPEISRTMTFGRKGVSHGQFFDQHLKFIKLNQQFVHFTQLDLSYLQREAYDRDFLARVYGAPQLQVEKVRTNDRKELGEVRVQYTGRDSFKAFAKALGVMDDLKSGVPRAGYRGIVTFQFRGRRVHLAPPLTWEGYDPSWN
Briefly: GnT-I activity assay of solubilized enzymes. It is filed as biochemical. Conditions: method of Reference Example 2. As to the method:
The activity of GnT-1 was assayed with a method by Yoshida et al. [Yoshida, S., Suzuki, M., Yamano, S., Takeuchi, M., Ikenaga, H., Kioka, N., Sakai, H., and Komano, T., Glycobiology, (1999), 9, 53–58] as described below. A 20 μl reaction solution was prepared by adding an enzyme source thereto so as to have a final concentration of 100 mM MES (pH 6.0), 20 mM MnCl2, 5 μM Manα1–6(Manα1–3)Manα1–6(Manα1–3)Manβ1–4GlcNAcβ1–4GlcNAc-PA(M5GN2-PA; Takara Shuzo, PA-Sugar Chain 017), 1 mM UDP-GlcNAc, 100 mM GlcNAc, 5 mM AMP, 1% Triton X-100, and 0.2% BSA. The reaction solution was incubated at 37° C. for 1 hour, and the reaction was terminated in boiling water. Thereafter, the reaction solution was analyzed by a reverse phase HPLC (Cosmosil 5C18-AR column) available from Nacalai Tesque.
When Manα1–6(Manα1–3)Manβ1–4GlcNAcβ1–4GlcNAc-PA (M3GN2-PA; Takara Shuzo, PA-Sugar Chain 016) was used as a sugar receptor, the same method was employed for analysis.

B1: His-Xpress-sOMGnT(S): solubilized human OMGnT, 414 amino acids 247:Ser to 660:Thr of SEQ ID NO: 2, secreted from HEK293T; plasmid named in Table 3 (protein, listed as Homo sapiens)
chain: SSAEEAECHWADTELNRRRRRFCSKVEGYGSVCSCKDPTPIEFSPDPLPDNKVLNVPVAVIAGNRPNYLYRMLRSLLSAQGVSPQMITVFIDGYYEEPMDVVALFGLRGIQHTPISIKNARVSQHYKASLTATFNLFPEAKFAVVLEEDLDIAVDFFSFLSQSIHLLEEDDSLYCISAWNDQGYEHTAEDPALLYRVETMPGLGWVLRRSLYKEELEPKWPTPEKLWDWDMWMRMPEQRRGRECIIPDVSRSYHFGIVGLNMNGYFHEAYFKKHKFNTVPGVQLRNVDSLKKEAYEVEVHRLLSEAEVLDHSKNPCEDSFLPDTEGHTYVAFIRMEKDDDFTTWTQLAKCLHIWDLDVRGNHRGLWRLFRKKNHFLVVGVPASPYSVKKPPSVTPIFLEPPPKEEGAPGAPEQT
modifications: His-Xpress tag
Turning to B1, in assay [1], the OMGnT activity turned out to be 20 pmol/hr/mg protein and the “OMGnT activity (in words)” value is given as “significantly high OMGnT activity”. In addition, the “GnT-I activity (in words)” value in assay [2] is recorded as “did not exhibit activity at all”.

B2: His-Xpress-sGnT-I: control: solubilized human GnT-I enzyme, 407 amino acids from 39:Ser (protein)
chain: T1 sequence (P26572 39-445 limits assumed)
modifications: left off: small tags and cut ends
notes: control: solubilized human GnT-I enzyme, 407 amino acids from 39:Ser
On to B2, for which, in assay [1], the OMGnT activity was found to be 0.4 pmol/hr/mg protein and the “OMGnT activity (in words)” value was “almost no activity”. Moreover, the GnT-I activity in assay [2] is reported as 500 pmol/hr/ml medium.
